Test results taken from PMC9619061.

Assays:
[1] = molecular target: Coproheme decarboxylase from Geobacillus stearothermophilus (HemQ), His-tag completely cleaved (Geobacillus stearothermophilus); experiment: SEC; Superdex 200 10/300, 1 ml/min, 50 mM HEPES pH 7.5, 100 mM NaCl; elution volume compared with the mass of a pentamer
[2] = molecular target: Coproheme decarboxylase from Geobacillus stearothermophilus (HemQ), His-tag completely cleaved (Geobacillus stearothermophilus); experiment: cryo-EM structure; single particle reconstruction, purified protein on glow-discharged gold Quantifoil R 1.2/1.3 grids, 50 mM HEPES pH 7.5, 100 mM NaCl; C5 and C1 symmetry
[3] = molecular target: Coproheme decarboxylase from Geobacillus stearothermophilus (HemQ), His-tag present in all copies (Geobacillus stearothermophilus); experiment: SEC; Superdex 200 10/300, 1 ml/min, 50 mM HEPES pH 7.5, 100 mM NaCl; elution volume compared with the mass of a pentamer
[4] = molecular target: Coproheme decarboxylase from Geobacillus stearothermophilus (HemQ), His-tag present in all copies (Geobacillus stearothermophilus); experiment: cryo-EM structure; single particle reconstruction, purified protein on glow-discharged gold Quantifoil R 1.2/1.3 grids, 50 mM HEPES pH 7.5, 100 mM NaCl; C5 and C1 symmetry
[5] = molecular target: Coproheme decarboxylase from Geobacillus stearothermophilus (HemQ), His-tag partially cleaved (Geobacillus stearothermophilus); experiment: SEC; Superdex 200 10/300, 1 ml/min, 50 mM HEPES pH 7.5, 100 mM NaCl; elution volume compared with the mass of a pentamer
[6] = molecular target: Coproheme decarboxylase from Geobacillus stearothermophilus (HemQ), His-tag partially cleaved (Geobacillus stearothermophilus); experiment: cryo-EM structure; single particle reconstruction, purified protein on glow-discharged gold Quantifoil R 1.2/1.3 grids, 50 mM HEPES pH 7.5, 100 mM NaCl; C5 and C1 symmetry

## Coproheme decarboxylase from Geobacillus stearothermophilus (HemQ), His-tag completely cleaved (enzyme)
[1]
  stoichiometry N: 5
[2]
  stoichiometry N: 5

## Coproheme decarboxylase from Geobacillus stearothermophilus (HemQ), His-tag present in all copies (enzyme)
[3]
  stoichiometry N: 5
[4]
  stoichiometry N: 5

## Coproheme decarboxylase from Geobacillus stearothermophilus (HemQ), His-tag partially cleaved (enzyme)
[5]
  stoichiometry N: 5
[6]
  stoichiometry N: 5
